Test [1] addresses RSV strain B18537 DS-Cav1 F glycoprotein (prefusion-stabilized soluble F trimer, subtype B) (RSV subtype B strain B18537 | phage T4). Nature of the test: crystal structure; crystals in 1.2M ammonium sulfate, 0.1M sodium acetate pH5.5, 0.1M lithium sulfate; space group P4(1)32, 1 protomer per asymmetric unit; trimer by crystal symmetry.
The target is the same in test [2]. Kind of test: SEC; 120 mL Superdex-200 gel filtration column in PBS buffer; single monodisperse peak compared with protein standards.

As for “RSV strain B18537 DS-Cav1 F glycoprotein (prefusion-stabilized soluble F trimer, subtype B) (domain or fragment)”, the stoichiometry N in test [1] and in test [2] was 3 in each case.

The term stoichiometry N denotes a count of units in the complex or per binding partner.

The values above are taken from article PMC6922093.
